Results on two molecules are retold here after US20260242515A1 (DUALITY BIOLOGICS SHANGHAI, published 2026).

The EC50 is the concentration that produces a half-maximal response. Low readings indicate an effect from little substance, high ones a need for much substance.

Test [1] has as its target T1, ADAM9 on human tumor cells (LS174T, HepG2, Calu-3, Colo205) (human, UniProt Q13443 29-819).
T1 sequence (looked up): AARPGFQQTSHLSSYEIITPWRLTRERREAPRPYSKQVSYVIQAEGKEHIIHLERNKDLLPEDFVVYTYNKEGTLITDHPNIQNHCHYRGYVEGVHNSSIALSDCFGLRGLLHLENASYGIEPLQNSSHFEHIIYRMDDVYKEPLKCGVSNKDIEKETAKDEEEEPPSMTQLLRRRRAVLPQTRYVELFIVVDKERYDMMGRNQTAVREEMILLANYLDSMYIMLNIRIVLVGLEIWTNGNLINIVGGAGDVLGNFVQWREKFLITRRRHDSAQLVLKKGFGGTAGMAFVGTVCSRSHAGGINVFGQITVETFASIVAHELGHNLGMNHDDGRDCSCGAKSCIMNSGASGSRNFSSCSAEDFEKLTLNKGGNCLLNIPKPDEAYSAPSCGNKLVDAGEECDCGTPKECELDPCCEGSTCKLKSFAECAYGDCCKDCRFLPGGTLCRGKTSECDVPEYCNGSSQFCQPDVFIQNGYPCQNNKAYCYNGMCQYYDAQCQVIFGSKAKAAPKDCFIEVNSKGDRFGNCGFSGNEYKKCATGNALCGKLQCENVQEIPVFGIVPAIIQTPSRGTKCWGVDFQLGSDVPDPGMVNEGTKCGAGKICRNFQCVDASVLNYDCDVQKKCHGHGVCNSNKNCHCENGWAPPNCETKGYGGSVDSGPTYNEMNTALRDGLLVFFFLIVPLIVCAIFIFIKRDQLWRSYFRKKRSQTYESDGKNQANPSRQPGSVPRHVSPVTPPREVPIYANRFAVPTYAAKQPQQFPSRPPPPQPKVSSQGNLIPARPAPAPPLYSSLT
As to the kind of experiment: cell-based or functional assay.

Test [2] concerns the target T2, Human ADAM9 protein (ACROBiosystems, Cat. No. AD9-H52H7) (human, UniProt Q13443 29-697).
T2 construct: Bought protein; also called Human ADAM-His protein; human ADAM9 antigen; not shown: His tag
T2 sequence (looked up): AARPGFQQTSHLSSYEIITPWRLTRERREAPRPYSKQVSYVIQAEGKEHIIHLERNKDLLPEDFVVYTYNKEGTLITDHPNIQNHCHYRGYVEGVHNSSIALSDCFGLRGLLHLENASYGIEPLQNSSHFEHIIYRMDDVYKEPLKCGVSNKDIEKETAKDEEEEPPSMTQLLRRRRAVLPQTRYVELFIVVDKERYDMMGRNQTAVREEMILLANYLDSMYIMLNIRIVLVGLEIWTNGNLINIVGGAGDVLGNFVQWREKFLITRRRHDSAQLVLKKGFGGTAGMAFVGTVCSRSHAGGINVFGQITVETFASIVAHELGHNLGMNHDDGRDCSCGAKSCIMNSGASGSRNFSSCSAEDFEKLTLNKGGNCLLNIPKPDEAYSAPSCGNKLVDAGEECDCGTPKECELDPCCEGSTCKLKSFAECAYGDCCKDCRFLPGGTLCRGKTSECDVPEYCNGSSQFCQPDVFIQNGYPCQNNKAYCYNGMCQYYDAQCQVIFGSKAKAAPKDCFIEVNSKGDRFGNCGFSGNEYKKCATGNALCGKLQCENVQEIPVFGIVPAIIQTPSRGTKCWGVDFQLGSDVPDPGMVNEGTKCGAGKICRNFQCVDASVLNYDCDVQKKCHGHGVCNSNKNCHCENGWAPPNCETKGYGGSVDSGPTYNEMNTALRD
As to the kind of experiment: indirect ELISA, human ADAM9-His coated at 1 ug/mL. The procedure: The plate was washed three times with PBST (PBS (pH 7.4) containing 0.05% Tween-20), followed by addition of 200 μL/well of blocking buffer containing 1% bovine serum albumin (BSA) diluted in PBST, and incubated at 37° C. for 1 hour for blocking. After blocking, the blocking buffer was discarded, and the plate was washed once with PBST buffer. The test antibody was diluted in PBST containing 1% BSA with a 3-fold serial dilution starting at 15 μg/mL across 11 doses, and added to the ELISA plate at 100 μL/well, followed by incubation at 37° C. for 1 hour. After incubation, the plate was washed three times with PBST, followed by addition of 100 μL/well of HRP-labeled goat anti-human secondary antibody (Rockland, Cat. No. 609-103-123) diluted in PBST containing 1% BSA, and incubated at room temperature for 45 minutes. The plate was washed six times with PBST, followed by addition of 100 μL/well of TMB chromogenic substrate (Suzhou Yacoo Chemical Reagent Co., Ltd., Cat. No. S0025), and incubated at room temperature in the dark for 10 minutes. The reaction was terminated by adding 50 μL/well of 1 M HCl, and the absorbance was measured at 450 nm using a microplate reader (Thermo, Ascent) for data analysis.
(In general: An ELISA detects its analyte on a solid surface through an enzyme-linked reagent.)

Positions count from the first letter of the chain named.

B1: Ab15 (antibody, human IgG1, kappa, V domains shown)
VH: QVQLQQPGAELKKPGASVKVSCKASGFTFPLYWMNWVRQRPGRGLEWIGRIIPIFGHTKYNEKFKDRATMTADESSSTAYMELSSLTSEDSAVYYCARGGYYYYPREGFLDYWGQGTSVTVSS
VL: DIVMTQSPDSLSVSPGERATINCRSSQSVDYSGDSYMNWYQQKPGQSPRLLIYAASDRESGVPDRFSGSGSGTDFTLKISNVEEEDAATYYCQQSREDPFTFGQGTRVEIKR
notes: Humanized anti-ADAM9 IgG1/kappa; also called Ab15-V (variable regions)
For the molecule B1, in test [1], the EC50 for internalization is 0.17 nM and the “Maximum internalization rate (%)” value was 81.8%. For the same molecule, in test [2], the EC50 amounted to 0.049 nM and the “Top (OD450)” value is 3.28 OD450.

B2: Ab16 (antibody, human IgG1, kappa, V domains shown)
VH: B1 VH with A9T, L11V, K12V, V20L, N35H, D66N, R67K, M70L, S84R, E89D
VL: B1 VL with D9A, T20S, N22S, N81R, A88G, R107K, E109D
notes: Humanized anti-ADAM9 IgG1/kappa; also called Ab16-V (variable regions)
Turning to B2, in test [1], the EC50 for internalization is 0.12 nM and the “Maximum internalization rate (%)” value came out at 83.3%. In test [2], it took 0.042 nM to reach a half-maximal effect (EC50) and the “Top (OD450)” value came out at 3.36 OD450.
